Experimental data from US20220387578A1 (VANDERBILT UNIVERSITY, published 2022).

B1: rFluA-20 heavy chain mutant Y34A (antibody, V domains shown)
VH: QVQLQESGPGLVKPSETLSLTCSVSGVSVTSDIAYWTWIRQPPGKGLEWIGYIFYNGDTNYNPSLKSRVTMSIDTSKNEFSLRLTSVTAADTAVYFCARGTEDLGYCSSGSCPNHWGQGTLVTVSS
VL: DIQMTQSPSSLSASIGDRVTITCRPSQNIRSFLNWFQHKPGKAPKLLIYAASNLQSGVPSRFSGSGSGTEFTLTIRSLQPEDFATYYCQQSYNTPPTFGQGTKVEIK
B2: rFluA-20 heavy chain mutant E97A (antibody, V domains shown)
VH: QVQLQESGPGLVKPSETLSLTCSVSGVSVTSDIYYWTWIRQPPGKGLEWIGYIFYNGDTNYNPSLKSRVTMSIDTSKNEFSLRLTSVTAADTAVYFCARGTADLGYCSSGSCPNHWGQGTLVTVSS
VL: DIQMTQSPSSLSASIGDRVTITCRPSQNIRSFLNWFQHKPGKAPKLLIYAASNLQSGVPSRFSGSGSGTEFTLTIRSLQPEDFATYYCQQSYNTPPTFGQGTKVEIK
B3: rFluA-20 heavy chain mutant T96A (antibody, V domains shown)
VH: QVQLQESGPGLVKPSETLSLTCSVSGVSVTSDIYYWTWIRQPPGKGLEWIGYIFYNGDTNYNPSLKSRVTMSIDTSKNEFSLRLTSVTAADTAVYFCARGAEDLGYCSSGSCPNHWGQGTLVTVSS
VL: DIQMTQSPSSLSASIGDRVTITCRPSQNIRSFLNWFQHKPGKAPKLLIYAASNLQSGVPSRFSGSGSGTEFTLTIRSLQPEDFATYYCQQSYNTPPTFGQGTKVEIK
B4: rFluA-20 light chain mutant N53A (antibody, V domains shown)
VH: QVQLQESGPGLVKPSETLSLTCSVSGVSVTSDIYYWTWIRQPPGKGLEWIGYIFYNGDTNYNPSLKSRVTMSIDTSKNEFSLRLTSVTAADTAVYFCARGTEDLGYCSSGSCPNHWGQGTLVTVSS
VL: DIQMTQSPSSLSASIGDRVTITCRPSQNIRSFLNWFQHKPGKAPKLLIYAASALQSGVPSRFSGSGSGTEFTLTIRSLQPEDFATYYCQQSYNTPPTFGQGTKVEIK
B5: rFluA-20 heavy chain mutant Y100aA (antibody, V domains shown)
VH: QVQLQESGPGLVKPSETLSLTCSVSGVSVTSDIYYWTWIRQPPGKGLEWIGYIFYNGDTNYNPSLKSRVTMSIDTSKNEFSLRLTSVTAADTAVYFCARGTEDLGACSSGSCPNHWGQGTLVTVSS
VL: DIQMTQSPSSLSASIGDRVTITCRPSQNIRSFLNWFQHKPGKAPKLLIYAASNLQSGVPSRFSGSGSGTEFTLTIRSLQPEDFATYYCQQSYNTPPTFGQGTKVEIK

Target: H3 HA A/Hong Kong/1/1968 (H3N2), recombinant soluble trimer (influenza A virus, UniProt Q91MA7 17-530)

B1 and B2 are the same in EC50: 0.07 µg/mL for the first, 0.07 µg/mL for the second.

First: B3
Second: B4
The EC50 of the first is 1.7-fold higher: 0.1 µg/mL for the first, 0.06 µg/mL for the second.

In the case of B5, the EC50 is reported as 0.07 µg/mL.
